Columns and labels:
[1] = tested on: ICAM-1; test: Flow cytometry of ICAM-1 expression on HCEC; assay type: cell-based, human; conditions: for Upregulation of ICAM-1: 1000 ng/ml
Protocol: Flow cytometry was used to assess the upregulation of ICAM-1 and VCAM-1 on HCEC in response to CAP37 treatment. HCEC were cultured as described above and treated with CAP37 (0-2000 ng/ml) for 0, 2, 6, 24, 48 and 72 hr. A corresponding culture was left untreated at each time point. Following treatment with CAP37, cells were detached with 5 mM EDTA (pH 7.4, Fisher Scientific), washed twice in PBS and fixed with 0.125% paraformaldehyde (J.T. Baker, Phillipsburg, N.J.) overnight at 4° C. The cells were washed in PBS and then incubated in 0.5% normal goat serum and 0.5% BSA in PBS for 30 min to block non-specific binding sites. For determination of ICAM-1 expression, cells were incubated in the primary antibody (FITC-labeled mouse anti-human ICAM-1, BIOSOURCE, Camarillo, Calif.) at 10^6 cells/10 μl at 4° C. for 1 hr. Cells were washed in PBS and analyzed by flow cytometry (FACSTAR, BECTON DICKINSON, San Jose, Calif.). For detection of VCAM-1 expression, cells were incubated with unlabeled primary antibody (monoclonal mouse anti human VCAM-1, ENDOGEN, Woburn, Mass. at 2 μg/10^6 cells) followed by FITC-labeled goat anti-mouse IgG (PHARMINGEN, San Diego, Calif.) at 5 μg/10^6 cells and incubated at 4° C. for 30 min. The isotype control for these studies was FITC-labeled mouse isotype IgG1 (PHARMINGEN). The positive control used in these studies was TNF-α (5 ng/ml). At least ten thousand cells were analyzed for each sample.

[2] = tested on: human corneal epithelial cells (HCEC); test: Modified Boyden chamber chemotaxis / checkerboard assay; assay type: cell-based; conditions: for Number of cells migrated: 4 hr
Protocol: Human corneal epithelial cells were cultured in basic medium overnight, detached using trypsin-EDTA as described above and resuspended at a final concentration of 8×10^5 cells/ml. Chemotaxis assays were performed using the modified Boyden chamber assay described previously (13). Briefly, 200 (μl of cell suspension was added to the upper chamber and chemoattractants including recombinant CAP37 (10-2000 ng/ml) and the positive control recombinant human Platelet Derived Growth Factor-BB (PDGF-BB, 10 ng/ml, Collaborative Biomedical Products, Bedford Mass.) in 0.1% BSA (endotoxin-low-Sigma, St. Louis) in Geys' Buffer (GIBCO) were added to the lower chamber. The chambers were separated by an 8.0 μm pore membrane (13 mm polyvinylpyrrolidone-free, Whatman, Clifton, N.J.). Membranes were pre-coated with 50 μg/ml collagen type I rat tail (Collaborative Biomedical Products) in 0.02N acetic acid at room temperature for 1 hr and then air dried. Membranes were re-hydrated in basic cell culture medium immediately prior to commencement of each experiment. The negative control in these experiments was 0.1% BSA in Geys' buffer. The chambers were incubated in a humidified atmosphere (37° C., 5% CO2) for 4 hr, the filters were removed, stained with DIFF-QUICK (Dade Behring, Düdingen, Switzerland) and mounted with Permount (FISHER SCIENTIFIC, Pittsburgh, Pa.). The filters were viewed under oil immersion (×400 magnification, BH-2, Olympus, Lake Success, N.Y.) and the total numbers of cells migrated through to the underside of the filter were counted in five different fields on each slide. Triplicates were set up for each experimental point.
To assess whether CAP37 had chemokinetic properties, various concentrations of CAP37 (0, 10, 100 and 1000 ng/ml) were added to the upper chamber as well as to the lower chamber (0, 10, 100, 500, 1000 ng/ml) and a checkerboard assay performed according to the methodology of Zigmond and Hirsch (46).

B1: CAP37: Cationic Antimicrobial Protein of Mr 37 kDa; recombinant protein from human 293 cells, identical to native PMN-derived CAP37 (SEQ ID NO:1) (protein, listed as Homo sapiens)
chain: IVGGRKARPRQFPFLASIQNQGRHFCGGALIHARFVMTAASCFQSQNPGVSTVVLGAYDLRRRERQSRQTFSISSMSENGYDPQQNLNDLMLLQLDREANLTSSVTILPLPLQNATVEAGTRCQVAGWGSQRSGGRLSRFPRFVNVTVTPEDQCRPNNVCTGVLTRRGGICNGDGGTPLVCEGLAHGVASFSLGPCGRGPDFFTRVALFRDWIDGVLNNPGP
- Upregulation of ICAM-1 ([1]; 2 hr): no upregulation of ICAM-1 could be detected
- Upregulation of ICAM-1 ([1]; 6 hr): significant upregulation of ICAM-1
- Upregulation of ICAM-1 ([1]; 24 hr): still above the untreated levels
- ICAM-1 levels relative to positive control ([1]; 1000-2000 ng/ml, TNF-α 5 ng/ml as positive control): comparable to those obtained with the positive control TNF-α
- Concentration giving maximum upregulation of ICAM-1 ([1]; HCEC, 6 hr, flow cytometry): 1000 to 2000 ng/mL
- ICAM-1 levels ([1]; concentrations between 10 and 500 ng/ml): Lower, yet significant levels of ICAM-1
- Chemotactic activity ([2]; 2000 ng/ml): reduced but still measurably active
- Concentration range of maximal chemotactic activity ([2]; Boyden chamber): 500 to 1000 ng/mL
- Number of cells migrated ([2]; CAP37 above the filter 0 ng/ml, below the filter 10 ng/ml): 28.56 ± 7.64
- Number of cells migrated ([2]; CAP37 above the filter 0 ng/ml, below the filter 100 ng/ml): 39.82 ± 6.20
- Number of cells migrated ([2]; CAP37 above the filter 0 ng/ml, below the filter 500 ng/ml): 68.89 ± 7.70
- Number of cells migrated ([2]; CAP37 above the filter 0 ng/ml, below the filter 1000 ng/ml): 67.34 ± 8.42
- Number of cells migrated ([2]; CAP37 above the filter 10 ng/ml, below the filter 10 ng/ml): 27.63 ± 3.03
- Number of cells migrated ([2]; CAP37 above the filter 10 ng/ml, below the filter 100 ng/ml): 39.80 ± 6.93
- Number of cells migrated ([2]; CAP37 above the filter 10 ng/ml, below the filter 500 ng/ml): 52.40 ± 15.76
- Number of cells migrated ([2]; CAP37 above the filter 10 ng/ml, below the filter 1000 ng/ml): 62.73 ± 9.66
- Number of cells migrated ([2]; CAP37 above the filter 100 ng/ml, below the filter 100 ng/ml): 36.63 ± 6.48
- Number of cells migrated ([2]; CAP37 above the filter 100 ng/ml, below the filter 1000 ng/ml): 48.57 ± 15.58
- Number of cells migrated ([2]; CAP37 above the filter 1000 ng/ml, below the filter 100 ng/ml): 28.08 ± 2.76
- Number of cells migrated ([2]; CAP37 above the filter 1000 ng/ml, below the filter 1000 ng/ml): 38.13 ± 6.07
- Levels of migration relative to positive control ([2]; PDGF-BB 10 ng/ml as positive control): comparable to those obtained with the positive control, PDGF
